Measured values taken from publication PMC9926122, “Kinetochore-microtubule attachment in human cells is regulated by the interaction of a conserved motif of Ska1 with EB1” (The Journal of Biological Chemistry, 2022).

B1: EB1-GST (natural protein, human, UniProt Q15691 1-268, looked up)
chain: MAVNVYSTSVTSDNLSRHDMLAWINESLQLNLTKIEQLCSGAAYCQFMDMLFPGSIALKKVKFQAKLEHEYIQNFKILQAGFKRMGVDKIIPVDKLVKGKFQDNFEFVQWFKKFFDANYDGKDYDPVAARQGQETAVAPSLVAPALNKPKKPLTSSSAAPQRPISTQRTAAAPKAGPGVVRKNPGVGNGDDEAAELMQQVNVLKLTVEDLEKERDFYFGKLRNIELICQENEGENDPVLQRIVDILYATDEGFVIPDEGGPQEEQEEY
notes: also called GST-tagged EB1; source: E. coli BL21 DE3, purified (Glutathione Sepharose)
B2: recombinant EB1 (HS-AFM and microtubule experiments) (natural protein, human, UniProt Q15691 1-268, looked up)
chain: B1 chain
notes: recombinant EB1 with N-terminal calponin homology domains (EB1-N), linker and C-terminal dimer region (EB1-C) seen by HS-AFM; The only EB1 expression construct that the methods describe is GST-tagged EB1 in pGEX 5x3; also called EB1 dimer; source: recombinant
B3: SXIP peptide aptamer (peptide)
peptide: ALNGQSRIPVLKRHTR

Assays:
Conditions in all cases: both partners purified
[1] = molecular target: T1, 6xHis-tagged WT Ska1 (human, UniProt Q96BD8 1-255); experiment: pull-down; competition: EB1-GST preincubated with the SXIP peptide aptamer for 2 h, GSH beads added, then incubated with Ska1 WT protein; rising doses of peptide
T1 construct: WT Ska1 from the plasmid pEC-S-CDF-His Ska1; Probably whole Ska1 (1-255); also called 6xHis Ska1 WT; 6xHis-Ska1; source: E. coli BL21 DE3, purified (Ni2+-NTA)
T1 sequence (Q96BD8 whole entry): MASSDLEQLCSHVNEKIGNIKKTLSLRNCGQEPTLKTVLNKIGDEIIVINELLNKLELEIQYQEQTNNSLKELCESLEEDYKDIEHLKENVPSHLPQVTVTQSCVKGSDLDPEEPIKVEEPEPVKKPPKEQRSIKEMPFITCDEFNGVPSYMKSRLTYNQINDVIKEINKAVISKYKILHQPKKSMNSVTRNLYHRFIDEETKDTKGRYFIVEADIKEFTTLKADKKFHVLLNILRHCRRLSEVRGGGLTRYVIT

[2] = molecular target: T1, 6xHis-tagged WT Ska1; experiment: high-speed atomic force microscopy (HS-AFM); proteins (10-30 nM; 10 nM in the frames shown) in BRB80 buffer (80 mM Pipes, 1 mM EGTA, 1 mM MgCl2, pH 6.9) on mica, tapping mode, 150 ms per frame; EB1 alone, Ska1 alone and their mixture
[3] = molecular target: B1; experiment: pull-down

B1: binds [1].

B2: binds [2].

With B3 the “percent reduction of EB1-Ska1 association at 1:5 M ratio of EB1:peptide” value [3] was ~70%.
